Laboratory results: patent publication US10918733B2, “Lipopeptide- and lipoprotein-conjugates and its use” (HELMHOLTZ-ZENTRUM FUER INFEKTIONSFORSCHUNG GMBH, priority 2009, dated 2021)

Tests used:
[1] = tested on: Ova-specific CD4+ T cells; test: Proliferation of CFSE-stained T cells co-cultured with treated DC: CD4+ T cells; assay type: cell-based, OT2-tg mice; conditions: DC incubated with 10 μg/mL for 24 h, co-culture 4 days
Procedure: (§1) T cell-mediated immune responses were investigated 96 h by measuring the proliferation of cells recovered from spleens after restimulation with BPPcysOva^mPEG. Non-Ag restimulated spleen cells were chosen as negative controls (FIG. 3). […] Taking into consideration that the BPPcysOva^mPEG has a promising effect on DC activation and maturation, next the capacity of these APC to stimulate the proliferation of antigen-specific CD8+ and CD4+ T cells was evaluated. Concentrations below 10^−8 M of BPPcysOva^mPEG were still able to induce an antigen specific proliferation of CD4+ T cells shown by the reduction of CFSE+ cells (FIGS. 4A-E).
(§2) FIG. 4: Proliferation of CD8+, CD4+ and regulatory T cells. DC were generated from bone marrow of C57BL/6 mice and incubated with 10 μg/mL of B) Ova C) Ova peptides, D) Ova in the presence of BPPcysMPEG and E) BPPcysOva^mPEG alone (A) Control) for 24 h. The following day, CD4+ T cells from spleens of OT2-tg animals or CD8+ T cells of OT1-tg animals were isolated. After staining with CFSE, CD8+, CD4+ T cells were co-cultured with adjuvant-treated DCs for 4 days. The decrease of CFSE-FITC expression due to cell division of CD8+ or CD4+ T cells were analysed by flow cytometric analysis. One representative experiment out of two is shown.

[2] = tested on: Ova-specific CD8+ T cells; test: Proliferation of CFSE-stained T cells co-cultured with treated DC: CD8+ T cells; assay type: cell-based, OT1-tg mice; conditions: DC incubated with 10 μg/mL for 24 h, co-culture 4 days
Procedure: as §1, §2

spleen cells = test: Proliferation of spleen cells of immunized mice after in vitro restimulation with Ova, day 42 (Example 5); assay type: in vivo; conditions: s.c., restimulation with 0.1 up to 40 μg/ml Ova
Procedure: Experimental protocol: Spleens were removed and pooled for analysis of cellular immune responses. Cells were grown in RPMI 1640 supplemented with 10% fetal calf serum, 100 U/ml of penicillin, 50 μg/ml of streptomycin, 5×10^−5 M 2-mercaptoethanol and 1 mM L-glutamine (GIBCO BRL, Karlsruhe, Germany) and maintained at 37° C. in a humidified 5% CO2 atmosphere. Lymph node and spleen cell suspensions were adjusted to 5×10^6 cells/ml in complete medium, cells were seeded with 100 μl per well in a flat-bottomed 96-well microtiter plate (Nunc) and plates were incubated for 4 days in the presence of different concentrations of Ova. Each concentration was tested in triplicates. During the final 18 h of culture, 1 μCi of [^3H]thymidine (Amersham International, Freiburg, Germany) was added to each well. Cells were then harvested on paper filters (Filtermat A; Wallac, Freiburg, Germany) by using a cell harvester (Inotech, Wohlen, Switzerland), and the amount of incorporated [^3H]thymidine into the DNA of proliferating cells was determined by a β-scintillation counter (Wallac 1450, Micro-Trilux). The results are expressed as the arithmetic mean of [^3H]thymidine uptake in cpm.
T cell-mediated immune responses were investigated at day 42 by measuring the proliferation of cells recovered from spleens after in vitro restimulation with Ova. […]

[3] = tested on: peritoneal macrophages from C3H/HeJ mice; test: Nitrogen monoxide release assay (macrophage activation); assay type: cell-based; conditions: with rIFN-γ, 45-48 hours; compared with the known BPPcysMPEG
Procedure: Experimental protocol: In brief, peritoneal macrophages from C3H/HeJ mice were used as the macrophage source. They were cultured in 96-well microtiter plates and stimulated simultaneously with rIFN-γ and a serial dilution of macrophage activator. Insofar as necessary, the macrophage activators were dissolved in 25 mM octylglucoside in the first dilution step and then diluted further with medium (i.e. R-Malp-2). After an incubating time of 45-48 hours, the nitrate was reduced with nitrate reductase and the starting substance nitrogen monoxide was determined, as the sum of nitrate and nitrite, using Griess' reagent. 1 unit (U)/ml is defined as the dilution at which half-maximal stimulation takes place.
FIG. 2: Nitrogen monoxide release assay. Peritoneal macrophages from C3H/HeJ mice were used as the macrophage source. They were cultured in 96-well microtiter plates and stimulated simultaneously with rIFN-γ and a serial dilution of macrophage activator. After an incubating time of 45-48 hours, the nitrate was reduced with nitrate reductase and the starting substance nitrogen monoxide was determined, as the sum of nitrate and nitrite, using Griess' reagent.

[4] = tested on: IFNgamma, IL-2, IL-4 and IL-17-secreting cells; test: ELISPOT of cytokine-secreting spleen cells in immunized mice; assay type: in vivo
Procedure: Experimental protocol: Spleens were removed and pooled for analysis of cellular immune responses. Cells were grown in RPMI 1640 supplemented with 10% fetal calf serum, 100 U/ml of penicillin, 50 μg/ml of streptomycin, 5×10^−5 M 2-mercaptoethanol and 1 mM L-glutamine (GIBCO BRL, Karlsruhe, Germany) and maintained at 37° C. in a humidified 5% CO2 atmosphere. Lymph node and spleen cell suspensions were adjusted to 5×10^6 cells/ml in complete medium, cells were seeded with 100 μl per well in a flat-bottomed 96-well microtiter plate (Nunc) and plates were incubated for 4 days in the presence of different concentrations of soluble Ova. Each concentration was tested in triplicates.
FIG. 7: Detection of IFNgamma, IL-2, IL-4 and IL-17-secreting cells in immunized mice. Spleen cells (1×10^6 and 5×10^5 cells/well) recovered from animals vaccinated by the (A) i.n. or (B) s.c. route were incubated in the presence of either the Ova protein (for IL2 and IL4) or a Ova peptide (TPHPARIGL) encompassing its immunodominant MHC class I-restricted epitope (for IFNgamma). Then, the numbers of IFNgamma, IL2, IL4 and IL-17-producing cells was determined by ELISPOT. Results are presented as spot forming units per 10^6 cells, which were subtracted from the values obtained from non-stimulated cells. The SEM of triplicates is indicated by vertical lines.

B1: Ova: model antigen ovalbumin (Sigma Chemie) (protein, UniProt P01012 2-386, looked up)
Ovalbumin: GSIGAASMEFCFDVFKELKVHHANENIFYCPIAIMSALAMVYLGAKDSTRTQINKVVRFDKLPGFGDSIEAQCGTSVNVHSSLRDILNQITKPNDVYSFSLASRLYAEERYPILPEYLQCVKELYRGGLEPINFQTAADQARELINSWVESQTNGIIRNVLQPSSVDSQTAMVLVNAIVFKGLWEKAFKDEDTQAMPFRVTEQESKPVQMMYQIGLFRVASMASEKMKILELPFASGTMSMLVLLPDEVSGLEQLESIINFEKLTEWTSSNVMEERKIKVYLPRMKMEEKYNLTSVLMAMGITDVFSSSANLSGISSAESLKISQAVHAAHAEINEAGREVVGSAEAGVDAASVSEEFRADHPFLFCIKHIATNAVLFFGRCVSP
For B1, the “stimulation of proliferation of Ova-specific CD4+ T cells by treated DC” value [1] was “weak stimulation”, the “stimulation of proliferation of Ova-specific CD8+ T cells by treated DC” value [2] was “very efficiently” and the “proliferative response of spleen cells, s.c. immunization” value (spleen cells) was “significant proliferative response”. The “potential for activating macrophages (NO secretion)” value [3] was “no potency” and the “IFNγ producing cells after i.n. administration” value [4] was “narrowly detectable”.
